assay: soluble on expression in E. coli; label from the status in PepcDB or PDB records

Soluble on expression in E. coli, not soluble:
MLNQNERHQILEEAVEWLMQMKQKPLNEIELLEFEQWKNRSQLHQSIWQQAYQLEEKFQSLPSHIAIPIIQKQKSHPDIWLMVLSCLPLLGLLYVMNQQQQWTADYRNGFHAPQTVKLPDGGKIILNSNTAIDVKYTAKKRDIILRKGEIWIETQHDVKNRPFTVYTQQGQAQALGTKYLVKIDQKSSQIAVLKGAVKVQPKTNNQYVIITKGQKISINQYNLHSVEYFDHSEIGWTKGLIMVNEIPLSEFVQKLRPYQSALIYLDPEVSNIKISGTFPIANMAQLYEMLENTYAIDVDRYAMNHIIRIRQKK, MLNRFKSWRERGWVPIDAAAYELAWQRLGGSVATHPLVVARLSEFSGIPVRYLAWEQGGEVKAAIATWGRSLALSKDELKRHGKKGLFDLGNAELILPVAEGVQVPVRHRARYVSALNEGRISTLKSQTESLAMARTPEELSKKFRYNQRRELRLLEEAGGTVRPVSEFSSAELASMYCDLFQRRWGFEATGARDKAQVIELLRDLLIGSVVFLNDAPIAIQLVYRVEAPQWVSIEYVNGGVDPETRDFSPGSVLSFVNTQSAWEDARALGKALRFSFGRADREYKDRWCNPVPVFQL, MLNSLEAYNENKFIVFGINDNKEIIGLEKNMFDDAHYQNIIDEYINPRPKIETGQIEYNDEKIGYIAINSNNLETPYELKKELRIKKSKSSLSKGLSFIRKGSTNTPIIQEEREKLILKKTEKNPNNKNLFTALNQKNHAIEEIYYKDNKKSGRKKLDPSNNNGRFTIGELSYEFEMILDVASNEIARIMKTDTIKVARIKNYKDNDIYYELQENLKSPNEVVKKLDTSSRSRDFTLKDLGILINKHGRIAEIFFKEIKSESHGSEENIVEIEWNIPDTKLEHHHHHH, MLNTRLELNKRIDNNVQLKYTEQKIFGNSKEIIGCEVLLDFEYAKKNQVAWKYLTMMHNGASLLSLIVYVNESILRYVKSNINKVFINVERISLCNSRHVGLITRLNEKMSEHNISLIVEITERGSDIPFVEIKNGLKSLQCSHVKLAMDDYDYKKTDFRSDEIFDYDYIKVDFPKTKAELDSFNNFVFLTSMFTCLIVERIENENDFFSVKNNRIWGYQGFAFCQKESFEGWSDNTSDNNVF, MLPANEIKGVLAFLREAERLKSVIRSGYTSTGRPESTAEHTWRLCLMAMLLADGLGDIDVARLLKICIVHDLGEALHGDVPAVAQVEGDDRAARERADIETLTQSLDDKRRAELLGLWHDYETGASPEGRLAKGLDKLETILQHTQGLNPADFDYAFNLDYGARHTAVHPLVSAIRAELDNDTRARMALQQASGAPH, MLPFLFFSTLFSSIFTEAQKQYWVCNSSDASISYTYCDKMQYPISINVNPCIELKGSKGLLHIFYIPRRDLKQLYFNLYITVNTMNLPKRKEVICRGSDDDYSFCRALKGETVNTTISFSFKGIKFSKGKYKCVVEAISGSPEEMLFCLEFVILHQPNSNLEHHHHHH, MLPRFADIFQQGNRWLNWLEKQPEGAVRPVVIESVTKIMACGTTLMGYTNRCCSSPDCCHTKKVCFRCKSRSCPHCVVKAGAQWIQYLLSLVPYCPWQHIVFTLPCQYWSLVFHNRWLLAKMSRIAADVILEICHQADVEPGIFTVIHTWGRDQQWHPHIHLSTTAGGVTSGHTWKNLHFYARKVMSMWRYRITRLLSRKYPYLVMPDALAAEGSSKREWNRFLDTHYRRGWNVNVSRVMDNATHVAVYFGSYLKKPPVPMSRLEHYAGQDEIGLRYNSHRTKREEYLLMSGDESMERFSWHVADKGFRMVRYYVFLSPAKRRLLEEVVYIITETVRKTAMQITWRGMYQRLLKVDPLKCVLCGSQMRFTGLKRGYRLAEQVLMHEPLARMRWCG, MLQDAVEDLGCELWGIECQRVGRFMTVRLFIDKDGGVTVDDCADVSRQVSAILDVEDPIADKYNLEVSSPGLDRPLFTLPQFERYIGQDIAVHLRIPVMERRKWQGKLERIEKDMITLIVDDQEQILVFGNIQKANVVAKF, MLQGFRWSPHGFWVCQARFFNKKIRQRTHYEVLGVESTATLSEIKSAFYAQSKKVHPDNSSEESATASFLELKNAYDVLRRPADRRLYDYQLRGGGGRYPNGGQRYQYPNTAPQYDFSRDWSTYWSQNPDNSRSSREERDKSSREFMKSI, MLRFRCILSTSRSIMSGVKEFDYLVIGGGSGGIASARRAREFGVSVGLIESGRLGGTCVNVGCVPKKVMYNCSLHAEFIRDHADYGFDVTLNKFDWKVIKKSRDEYIKRLNGLYESGLKGSSVEYIRGRATFAEDGTVEVNGAKYRGKNTLIAVGGKPTIPNIKGAEHGIDSDGFFDLEDLPSRTVVVGAGYIAVEIAGVLANLGSDTHLLIRYDKVLRTFDKMLSDELTADMDEETNPLHLHKNTQVTEVIKGDDGLLTIKTTTGVIEKVQTLIWAIGRDPLTKELNLERVGVKTDKSGHIIVDEYQNTSAPGILSVGDDTGKFLLTPVAIAAGRRLSHRLFNGETDNKLTYENIATVVFSHPLIGTVGLTEAEAVEKYGKDEVTLYKSRFNPMLFAVTKHKEKAAMKLVCVGKDEKVVGVHVFGVGSDEMLQGFAVAVTMGATKKQFDQTVAIHPTSAEELVTMRGGVKPE, MLRIDCGGQDTVTKIVAERLMMKTDGRLARMLHVLVHMGLLGGRETSERIAQMLNTNPVVVRRTLGALRESGIVVSEGGRGGGWKLIRSLDQITVLDVQRALVEGQMLPAPLSKDHPNCPVERASNAVLERAHCLAEAALRTAYSETTLAQIAETAVATK, MLRLQMTDGHISCTAVEFSYMSKISLNTPPGTKVKLSGIVDIKNGFLLLNDSNTTVLGGEVEHLIEKWELQRSLSKHNRSNIGTEGGPPPFVPFGQCVSRVQVDSRELDRRKTLQVTMPVKPTNDNDEFEKQRTAAIAEVAKSKETKTFGGGGGGARSNLNMNAAGNRNREVLQKEKSTKSEGKHEGVYRELVDEKALKHITEMGFSKEASRQALMDNGNNLEAALNVLLTSNKQKPVMGPPLRGRGKGRGRIRSEDEEDLGNARPSAPSTLFDFLESKMGTLNVEEPKSQPQQLHQGQYRSSNTEQNGVKDNNHLRHPPRNDTRQPRNEKPPRFQRDSQNSKSVLEGSGLPRNRGSERPSTSSVSEVWAEDRIKCDRPYSRYDRTKDTSYPLGSQHSDGAFKKRDNSMQSRSGKGPSFAEAKENPLPQGSVDYNNQKRGKRESQTSIPDYFYDRKSQTINNEAFSGIKIEKHFNVNTDYQNPVRSNSFIGVPNGEVEMPLKGRRIGHIKPAGPVTAVPCDDKIFYNSGPKRRSGPIKPEKILESSIPMEYAKMWKPGDECFALYWEDNKFYRAEVEALHSSGMTAVVKFIDYGNYEEVLLSNIKPIQTEAWEEEGTYDQTLEFRRGGDGQPRRSTRPTQQFYQPPRARN

Soluble on expression in E. coli, soluble:
MLNSNNHQTEWKWPRLIQIMEIGNSAMKNTMSKTLYMSYNFIARTSGKTYHAPVLVVDCSVNEGWLWMRICHNCLGCLCTGYWAAQRTFATTTGLRLVWL, MLPFAPQDEPWDREMEVFSGGGASSGEVNGLKMVDEPMEEGEADSCHDEGVVKEIPITHHVKEGYEKADPAQFELLKVLGQGSFGKVFLVRKKTGPDAGQLYAMKVLKKASLKVRDRVRTKMERDILVEVNHPFIVKLHYAFQTEGKLYLILDFLRGGDVFTRLSKEVLFTEEDVKFYLAELALALDHLHQLGIVYRDLKPENILLDEIGHIKLTDFGLSKESVDQEKKAYSFCGTVEYMAPEVVNRRGHSQSADWWSYGVLMFEMLTGTLPFQGKDRNETMNMILKAKLGMPQFLSAEAQSLLRMLFKRNPANRLGSEGVEEIKRHLFFANIDWDKLYKREVQPPFKPASGKPDDTFCFDPEFTAKTPKDSPGLPASANAHQLFKGFSFVATSIAEEYKITPITSANVLPIVQINGNAAQFGEVYELKEDIGVGSYSVCKRCIHATTNMEFAVKIIDKSKRDPSEEIEILMRYGQHPNIITLKDVFDDGRYVYLVTDLMKGGELLDRILKQKCFSEREASDILYVISKTVDYLHCQGVVHRDLKPSNILYMDESASADSIRICDFGFAKQLRGENGLLLTPCYTANFVAPEVLMQQGYDAACDIWSLGVLFYTMLAGYTPFANGPNDTPEEILLRIGNGKFSLSGGNWDNISDGAKDLLSHMLHMDPHQRYTAEQILKHSWITHRDQLPNDQPKRNDVSHVVKGAMVATYSALTHKTFQPVLEPVAASSLAQRRSMKKRTSTGL, MLPFFKELQTCTEMLEKNPQDATALFQKAVLLYKARRFEAALQLIEQVLEIVPDDFRVWYNRGVVLSEMGRLEDALAAYDRVIELEPVFEMAWDNKGVVLARLGRFEEALETYEKVLLRNPKYAEAWAGKGSVLSALDRKEEALEAYLSALKIRPDYLEALKSVGSLFSRLGRYEEALAAYDTALQAAPEAPELWAGRGLVLSELDRQEEALQSCSRALELKPGFAPALEVKVKILSEIGRQKARASQLEHHHHHH, MLQDHKITFLGAGSMAESIIAGLLSKKLLLPSQVIATNLCDEAKLTKLEDRYGICTTQNRQEAVRQGTIIFLAMKPKNIEEAIEEIRGEITEKQLFISVLAGTTTSYIETLLAHEVPVVRTMPNTSAKVGASATGLCGGRYANASHVKLATLIFTAIGTVTEVTEDKLDAVTGLAGSGPAYFYYMVEAMERAAVQSGLTESEAKAFISQTLIGTGKRLEQTSKTAEELYKEVMSPGGTTEAGLRVLEQQQMQQAIEEAITAAINRSRELGSTPSLEIKKLEHHHHHH, MLRRGYKASERRRHLSERLSWHQDQALSSSIYLLREMGPTGFLLREEEPEYMDFRVFLGNPHVCNCSTFPKGGELCKHICWVLLKKFELPRNHESALQLGLGEREISDLLRGIHRVQTPQPGTNDENEHVEEDGYIKQKEIDSEDICSICQELLLEKKLPVTFCRFGCGNSIHIKCMKILANYQSTSNTSMLKCPLCRKEFAPLKLILEEFKNSSKLVAAAEKERLDKHLGIPCNNCKQFPIEGKCYKCTECIEYHLCQECFDSYCHLSHTFTFREKRNQKWRSLEKRADEVVKYIDTKNETEEKMSHFQEKQGQVYTPKHIVRSLPLQLITKNSKLLAPGYQCLLCLKAFHLGQHTRLLPCTHKFHRKCIDNWLFHKCNSCPIGGQVIYNPLTWKNSAVNGQAHQSVSNRDIIHLSKQKEPDLFIPGTGLVLKQNRLGILPSIPQCNFDELNTPQSPKDAYENTTIDNLCSIKLDNSNSKKLTYEYKISQHFPRYLQDLPTVSFGKIPSQTLLPPIVHKNIVCPTAMESPCISGKYHTSLSRVTKGCKCNNHNLKKTPATKIREDNKRSTLLPEDFNLIVNWSTAKLSLSKRYSNCMGEITRKCSHLSRQPVSHSVNTKSTELSLIIEGVQL, MLRSSLLPFSYLYEKIINFRNTLYDKGFLKIKKLPVPVISVGNLSVGGSGKTSFVMYLADLLKDKRVCILSRGYKRKSKGTLIVSEYGNLKVSWEEAGDEPYLMAKLLPHVSVVASEDRYKGGLLALEKLSPEVFILDDGFQHRKLHRDLNILLLKKKDLKDRLLPAGNLREPLKEIRRADALVLTYQEVEPFEFFTGKPTFKMFREFCCLLNSDFEEVPFDILKEREVIAFSGLGDNGQFRKVLKNLGIKVKEFMSFPDHYDYSDFTPEEGEIYLTTPKDLIKLQGYENVFALNFKVKLEREEKLKKLIYRIFYLEHHHHHH, MLRTYFPEVVLFLHAFPLNKEMYRYQFCAFEEEGIPYVALDYPGFGDAPNLPGEYTVERLTDYVVNELRKFRVKKVIPIGDSMGGYIMFDMWRRYREMIKGFVFVATRAEADTEEGKKARYALIEKVQKEGKEFLIEAMLENQTSPATKKDENKMRTLRCIMEKATREGIVKTLKALAERKDNTDLLPSIDVPTLVIAGKDDERVTPPEIVKKIAEGIKGAKYYELENSAHLPPFENPEKFNEVVIPFVKDLLKTP
